# Data: the Immune Epitope Database (IEDB)
# Key:
# [1] = target: HLA-A*32:01; assay: IEDB peptide-MHC binding, purified MHC/competitive/radioactivity; filed as Kd, often an IC50 or EC50 that approximates it; ≥ and ≤ were set here for values at or beyond the usual limits of such assays
# [2] = target: HLA-A*26:01; assay: as above
# [3] = target: HLA-A*24:02; assay: as above
# [4] = target: HLA-A*30:02; assay: as above
# [5] = target: HLA-A*29:02; assay: as above
# [6] = target: HLA-A*01:01; assay: as above
# [7] = target: HLA-A*23:01; assay: as above
# [8] = target: HLA-A*30:01; assay: as above
# [9] = target: HLA-B*40:01; assay: as above
# [10] = target: HLA-B*44:03; assay: as above; conditions: source organism: Dengue virus 3 Martinique/1243/1999
# [11] = target: HLA-A*11:01; assay: as above; conditions: source organism: Triticum aestivum
# [12] = target: HLA-A*31:01; assay: as above; conditions: source organism: Triticum aestivum
# [13] = target: HLA-A*03:01; assay: as above; conditions: source organism: Triticum aestivum
# [14] = target: HLA-A*33:01; assay: as above; conditions: source organism: Triticum aestivum
# [15] = target: HLA-A*68:01; assay: as above; conditions: source organism: Triticum aestivum
# [16] = target: HLA-B*48:01; assay: IEDB peptide-MHC binding, purified MHC/direct/fluorescence; filed as Kd, often an IC50 or EC50 that approximates it; ≥ and ≤ were set here for values at or beyond the usual limits of such assays
# [17] = target: HLA-A*02:01; assay: IEDB peptide-MHC binding, purified MHC/competitive/fluorescence; filed as Kd, often an IC50 or EC50 that approximates it; ≥ and ≤ were set here for values at or beyond the usual limits of such assays; conditions: source organism: Vaccinia virus Copenhagen
# [18] = source organism: Vaccinia virus WR
# [19] = source organism: Mammarenavirus lassaense
# [20] = source organism: SARS coronavirus Tor2
# [21] = source organism: Mammarenavirus machupoense
# [22] = source organism: Mammarenavirus whitewaterense
# [23] = source organism: Dengue virus 3 Martinique/1243/1999
# [24] = source organism: Triticum aestivum
# [25] = source organism: Mammarenavirus guanaritoense
# [26] = source organism: Mammarenavirus choriomeningitidis
sequence,measurement,setting,value
MTNTMRNAI,Kd,[1]; [18],0.106 µM
PEDPVEVALY,Kd,[2]; [19],≥ 69.7 µM
same,Kd,[3]; [19],≥ 70.3 µM
same,Kd,[4]; [19],1.43 µM
same,Kd,[5]; [19],≥ 43.4 µM
same,Kd,[6]; [19],≥ 41 µM
same,Kd,[7]; [19],≥ 70 µM
QMYKTPTLKY,Kd,[2]; [20],3.12 µM
same,Kd,[3]; [20],≥ 70.3 µM
same,Kd,[4]; [20],0.0552 µM
same,Kd,[5]; [20],0.00681 µM
same,Kd,[6]; [20],8.92 µM
same,Kd,[7]; [20],≥ 70 µM
RCWLIRNGSY,Kd,[2]; [21],≥ 69.7 µM
same,Kd,[3]; [21],≥ 70.3 µM
same,Kd,[4]; [21],0.0161 µM
same,Kd,[5]; [21],4.81 µM
same,Kd,[6]; [21],≥ 37.7 µM
same,Kd,[7]; [21],≥ 34.7 µM
RCWLTKNGSY,Kd,[2]; [22],≥ 23.3 µM
same,Kd,[1]; [22],≥ 69.9 µM
same,Kd,[8]; [22],3.79 µM
same,Kd,[3]; [22],≥ 70.3 µM
same,Kd,[4]; [22],0.0575 µM
same,Kd,[5]; [22],8.92 µM
same,Kd,[6]; [22],18.9 µM
same,Kd,[7]; [22],≥ 70 µM
RMLLNRFTM,Kd,[1]; source organism: Dengue virus 1 Brazil/97-11/1997,0.0194 µM
SETQHGTIL,Kd,[9]; [23],0.00395 µM
same,Kd,[10],0.127 µM
SFQQPQQQY,Kd,[11],≥ 77.9 µM
same,Kd,[2]; [24],≥ 43.7 µM
same,Kd,[3]; [24],≥ 77.6 µM
same,Kd,[12],≥ 77.9 µM
same,Kd,[13],≥ 78 µM
same,Kd,[4]; [24],≥ 63.2 µM
same,Kd,[5]; [24],0.0841 µM
same,Kd,[6]; [24],≥ 68.9 µM
same,Kd,[14],≥ 77.7 µM
same,Kd,[7]; [24],≥ 77.8 µM
same,Kd,[15],≥ 77.7 µM
SMSEIINNI,Kd,[1]; [18],0.245 µM
SRAWNVWEVE,Kd,[1]; [23],≥ 26.5 µM
SRLTYQWHK,Kd,[16]; source organism: Yellow fever virus,≥ 20 µM
SWLDFDEKLV,Kd,[2]; [25],≥ 69.7 µM
same,Kd,[3]; [25],14 µM
same,Kd,[4]; [25],4.94 µM
same,Kd,[5]; [25],≥ 71.4 µM
same,Kd,[6]; [25],6.1 µM
same,Kd,[7]; [25],0.32 µM
TEEIAVQNWL,Kd,[9]; source organism: Dengue virus 2 Jamaica/1409/1983,0.104 µM
TSQKSIVAY,Kd,[2]; [20],8.25 µM
same,Kd,[3]; [20],≥ 77.6 µM
same,Kd,[4]; [20],0.0254 µM
same,Kd,[5]; [20],2.08 µM
same,Kd,[6]; [20],1.18 µM
same,Kd,[7]; [20],≥ 77.8 µM
VGRAWENTI,Kd,[2]; [19],≥ 77.9 µM
same,Kd,[3]; [19],8.77 µM
same,Kd,[4]; [19],0.0991 µM
same,Kd,[5]; [19],≥ 78.9 µM
same,Kd,[6]; [19],≥ 26.7 µM
same,Kd,[7]; [19],2.95 µM
VLEDVQAAGI,Kd,[17],0.232 µM
VTERIFREY,Kd,[2]; [26],≥ 44.9 µM
same,Kd,[1]; [26],12.9 µM
same,Kd,[8]; [26],4.01 µM
same,Kd,[4]; [26],0.876 µM
same,Kd,[5]; [26],8.69 µM
same,Kd,[6]; [26],0.00862 µM
VYIGDPAQL,Kd,[2]; [20],≥ 77.9 µM
same,Kd,[3]; [20],0.107 µM
same,Kd,[4]; [20],≥ 78.9 µM
same,Kd,[5]; [20],≥ 22.8 µM
same,Kd,[6]; [20],≥ 78.1 µM
same,Kd,[7]; [20],1.18 µM
WCEFVDFSV,Kd,[2]; [25],≥ 77.9 µM
same,Kd,[3]; [25],≥ 77.5 µM
same,Kd,[4]; [25],7.9 µM
same,Kd,[5]; [25],2.47 µM
same,Kd,[6]; [25],0.341 µM
same,Kd,[7]; [25],≥ 53.3 µM
YEEFCNAVY,Kd,[2]; [19],≥ 77.9 µM
same,Kd,[3]; [19],≥ 77.5 µM
same,Kd,[4]; [19],0.762 µM
same,Kd,[5]; [19],0.426 µM
same,Kd,[6]; [19],5.37 µM
same,Kd,[7]; [19],10.1 µM
YRLRGEARK,Kd,[16]; source organism: Dengue virus 1 Singapore/S275/1990,≥ 20 µM
